Laboratory results as given in patent US20050287527A1, “Quantitative ranking of transient ligand binding to target biomolecules” (National Research Council of Canada, priority 2002, published 2005).

Legend:
[1] = target: human prothrombin (human), P00734; experiment: 15N CPMG NMR relaxation dispersion, two-site fit; Tyr63; 288 K
[2] = target: human prothrombin (human), P00734; experiment: 15N CPMG NMR relaxation dispersion, two-site fit; Glu62; 288 K
[3] = target: human prothrombin (human), P00734; experiment: 15N CPMG NMR relaxation dispersion, two-site fit; Glu57; 288 K
[4] = target: human prothrombin (human), P00734; experiment: 15N CPMG NMR relaxation dispersion, two-site fit; Glu58; 288 K
[5] = target: human prothrombin (human), P00734; experiment: 15N CPMG NMR relaxation dispersion, two-site fit; Phe56; 288 K
[6] = target: human prothrombin (human), P00734; experiment: 15N CPMG NMR relaxation dispersion, two-site fit; Ile59; 288 K
[7] = target: human α-thrombin (human), P00734; experiment: 15N CPMG NMR relaxation dispersion of thrombin-cleaved FD22, two-site fit, highest thrombin:ligand ratio; Arg47; FD22-C present; 288 K
[8] = target: human α-thrombin (human), P00734; experiment: 15N CPMG NMR relaxation dispersion of thrombin-cleaved FD22, two-site fit at the highest thrombin concentration; Arg47; FD22-C present; 288 K
[9] = target: human prothrombin (human), P00734; experiment: 15N CPMG NMR relaxation dispersion, full three-site fit of eighteen curves; 298 K
[10] = target: human prothrombin (human), P00734; experiment: 15N CPMG NMR relaxation dispersion, linear three-site fit of Glu57; 298 K
[11] = target: human prothrombin (human), P00734; experiment: 15N CPMG NMR relaxation dispersion, linear three-site fit of eighteen curves; 298 K

Work on GDFEEIPEEYLQ (modifications not checked) [Hir(54-65)] yielded a pb (apparent fraction of the bound peptide) [1] of 6.7%, a pb (apparent fraction of the bound peptide) [2] of 6.9% and a pb (apparent fraction of the bound peptide) [3] of 4.9%. For the same binder, the pb (apparent fraction of the bound peptide) [4] was 6.5%, the pb (apparent fraction of the bound peptide) [5] was 4.5% and the pb (apparent fraction of the bound peptide) [6] was 6%.

Work on FDPR (modifications not checked) [FD22-N] yielded a pb (apparent fraction of the bound peptide) [7] of 3.2% and a koff [8] of 310 s⁻¹.

In the case of DFEEIPEEYLQ (not fully specified; modifications not checked) [N-acetyl-Hir(55-65)], the pb1 (population of the first bound state) [9] is reported as 1.45%, the pb2 (population of the second bound state) [9] is reported as 1.5% and the pb (total bound population) [9] is reported as 3%. The pb1 (population of the dissociation-competent bound state) [10] was 1.3%, the pb2 (population of the second bound state) [10] was 4% and the pb=pb1+pb2 (total bound population) [10] was 5.3%. It also gave a pb1 (population of the first bound state) [11] of 2.3%, a pb2 (population of the second bound state) [11] of 1% and a pb (total bound population) [11] of 3.35%.
